From US20260306683 (published 2026)
Read-outs that look alike come from different tables or passages of the source.

Key:
Assay in all cases: ELISA
[1] = biological target: T1, misfolded (denatured) human SOD1 (human, UniProt P00441)
[2] = biological target: T1, misfolded (denatured) human SOD1; remark: listed apart in the source
[3] = biological target: T1, misfolded (denatured) human SOD1; remark: listed apart in the source

T1 sequence (P00441 2-154): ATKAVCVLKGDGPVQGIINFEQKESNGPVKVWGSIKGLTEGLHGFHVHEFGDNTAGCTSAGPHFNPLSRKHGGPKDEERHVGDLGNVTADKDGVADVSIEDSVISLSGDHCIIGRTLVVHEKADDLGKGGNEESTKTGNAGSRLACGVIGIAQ

EC50 [1]	EC50 [2]	EC50 [3]	Binder
2.4 nM	–	–	Degly-natZr-DFO-AP-101 (antibody, V domains shown, EndoS2 deglycosylated, DFO conjugated on lysines (0.6:1.0), natZr labelled) VH: QVQLVQSGAEVKKPGASVTLSCKASGYTFTAYYIHWVRQAREQGLEWMGVINPSTGTTFYAQNFPDRVSVTRDTSTSTVFMELHNLKSEDTAVYYCARAISEHGSGSYSPYYWGQGTLVTVSS VL: SYELTQPPSVSVSLGQMAAITCSGEALPKKYGYWYQQKPGQVPVLLIYRDVERPSGVPDRFSGSSSGTMVTLTISGVQAEDEADYYCLSADSSGTWVFGGGTKLTVLG
–	0.2 nM	–	AP-101 (non-modified alpha-miSOD1) (antibody, V domains shown) VH: QVQLVQSGAEVKKPGASVTLSCKASGYTFTAYYIHWVRQAREQGLEWMGVINPSTGTTFYAQNFPDRVSVTRDTSTSTVFMELHNLKSEDTAVYYCARAISEHGSGSYSPYYWGQGTLVTVSS VL: SYELTQPPSVSVSLGQMAAITCSGEALPKKYGYWYQQKPGQVPVLLIYRDVERPSGVPDRFSGSSSGTMVTLTISGVQAEDEADYYCLSADSSGTWVFGGGTKLTVLG
0.3 nM	–	0.5 nM	natZr-DFO-AP-101 (antibody, V domains shown, DFO chelator conjugated on lysines (DFO:antibody 1.1:1.0), natZr labelled) VH: QVQLVQSGAEVKKPGASVTLSCKASGYTFTAYYIHWVRQAREQGLEWMGVINPSTGTTFYAQNFPDRVSVTRDTSTSTVFMELHNLKSEDTAVYYCARAISEHGSGSYSPYYWGQGTLVTVSS VL: SYELTQPPSVSVSLGQMAAITCSGEALPKKYGYWYQQKPGQVPVLLIYRDVERPSGVPDRFSGSSSGTMVTLTISGVQAEDEADYYCLSADSSGTWVFGGGTKLTVLG
